Positions of bridges follow the written chain, without caps; N, C: chain ends. No end group written: not given here.
Columns and labels:
[1] = target: T1, recombinant soluble human Seprase (rhuSeprase) (human, UniProt Q12884 29-760); experiment: SPR (Biacore T-100), rhuSeprase immobilized on CM5, multi cycle kinetics, 1:1 fit
T1 construct: range 29-760; Secreted from CHO-S cells with a mouse Ig kappa secretion signal (not part of the protein in the assay); also called recombinant human Seprase; soluble fraction of human Seprase
T1 sequence: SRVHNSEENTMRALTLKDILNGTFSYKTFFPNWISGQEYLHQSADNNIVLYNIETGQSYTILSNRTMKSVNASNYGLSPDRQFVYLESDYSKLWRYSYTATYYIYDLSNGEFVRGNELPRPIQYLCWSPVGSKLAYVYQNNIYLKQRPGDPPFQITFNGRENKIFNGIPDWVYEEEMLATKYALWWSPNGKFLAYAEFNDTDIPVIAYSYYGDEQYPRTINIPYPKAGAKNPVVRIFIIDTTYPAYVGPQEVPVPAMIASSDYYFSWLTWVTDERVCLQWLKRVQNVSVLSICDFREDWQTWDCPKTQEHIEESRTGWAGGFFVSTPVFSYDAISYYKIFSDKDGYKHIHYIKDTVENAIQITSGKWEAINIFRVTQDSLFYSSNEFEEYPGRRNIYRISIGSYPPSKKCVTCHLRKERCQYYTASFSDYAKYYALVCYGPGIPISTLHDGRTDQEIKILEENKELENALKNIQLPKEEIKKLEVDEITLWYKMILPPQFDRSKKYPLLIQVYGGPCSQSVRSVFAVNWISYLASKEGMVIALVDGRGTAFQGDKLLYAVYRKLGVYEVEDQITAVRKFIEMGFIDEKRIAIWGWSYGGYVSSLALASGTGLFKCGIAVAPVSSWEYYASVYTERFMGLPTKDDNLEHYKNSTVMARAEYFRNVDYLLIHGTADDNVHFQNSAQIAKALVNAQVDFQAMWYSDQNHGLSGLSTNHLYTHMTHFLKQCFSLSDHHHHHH
Protocol: (§1) RhuSeprase (20 μg/ml in PBS, 5% mannitol, 5% trehalose) was immobilized on an amino reactive Series S Sensor Chip CM5 (GE Healthcare). For binding analysis of monomeric Microbodies rhuSeprase was loaded to a maximum of 7500 RU, for oligomeric Microbodies to a maximum of 700 RU. Monomeric Microbodies were measured using a multi cycle kinetic method in a concentration range of 3.125 to 1000 nM based on expected dissociation constant. Association step was measured over a time period of 60-90 seconds, dissociation over 420 seconds. Trimeric Mircobodies were measured using a single cycle kinetics method in a concentration range of 0.3125 to 5 nM (association for 90 seconds, dissociation 420 seconds). Binding kinetics and steady state analysis were calculated using a 1:1 binding model (Biacore T-100 Evaluation Software, GE Healthcare).
(§2) The binding kinetics of monomeric and trimeric Seprase-binding Microbodies was determined using surface plasmon resonance spectroscopy on a Biacore T-100 system.

[2] = target: T1, recombinant soluble human Seprase …; experiment: SPR (Biacore T-100), rhuSeprase immobilized on CM5, steady state analysis, 1:1 fit
Protocol: as §1, §2

[3] = target: T1, recombinant soluble human Seprase …; experiment: SPR (Biacore T-100)
Protocol: as §1, §2

[4] = target: T1, recombinant soluble human Seprase …; experiment: SPR (Biacore T-100), rhuSeprase immobilized on CM5, single cycle kinetics, 1:1 fit
Protocol: as §1, §2

[5] = target: T1, recombinant soluble human Seprase …; experiment: direct ELISA on coated rhuSeprase; binding relative to the parental Trx-MC-FA-010
Protocol: (§3) For protein based ELISA analysis 5 μg of the respective recombinant protein (rhuSeprase; streptavidin: Sigma; DPP-IV: R&D Systems, BSA: Eurobio) were immobilized per well of a MaxiSorp™ plate (Nunc) by overnight incubation in coating buffer at 4° C. After washing thrice with 300 μl PBS-T/well on a Hydrospeed plate washer (Tecan) the wells were blocked with 1×Casein solution (Sigma, diluted in PBS) for 2 h at RT. Subsequently, the wells were washed as indicated above. 100 μl of the respective Trx-miniprotein fusion diluted in PBS-T was then added and incubated for 1 h at 4° C. […] For competition ELISAs a fixed concentration of 3 nM Trx-miniprotein fusion was mixed with varying concentration (0.64-3167 nM) of solitary miniprotein before incubation. Binding of the Trx-fusion was detected after a PBS-T washing procedure using HRP coupled anti S-tag antibody as described above. Apparent Kd was calculated using Sigmaplot 10 and an one site saturation binding model for fitting of the data.

[6] = target: T1, recombinant soluble human Seprase …; experiment: direct ELISA on coated rhuSeprase, Trx fusion detected with anti-S-tag-HRP; apparent KD from one site saturation fit; Error 1,76; R2 0,9973
Protocol: as §3

[7] = target: T1, recombinant soluble human Seprase …; experiment: direct ELISA on coated rhuSeprase, Trx fusion detected with anti-S-tag-HRP; apparent KD from one site saturation fit; Error 0,54; R2 0,9981
Protocol: as §3

[8] = target: T1, recombinant soluble human Seprase …; experiment: direct ELISA on coated rhuSeprase, Trx fusion detected with anti-S-tag-HRP; apparent KD from one site saturation fit; Error 11,54; R2 0,9969
Protocol: as §3

[9] = target: T1, recombinant soluble human Seprase …; experiment: direct ELISA on coated rhuSeprase, Trx fusion detected with anti-S-tag-HRP; apparent KD from one site saturation fit; Error 1,17; R2 0,9977
Protocol: as §3

[10] = target: T1, recombinant soluble human Seprase …; experiment: direct ELISA on coated rhuSeprase, Trx fusion detected with anti-S-tag-HRP; apparent KD from one site saturation fit; Error 1,02; R2 0,9976
Protocol: as §3

[11] = target: T1, recombinant soluble human Seprase …; experiment: direct ELISA on coated rhuSeprase, Trx fusion detected with anti-S-tag-HRP; apparent KD from one site saturation fit; Error 3,04; R2 0,9976
Protocol: as §3

[12] = target: T1, recombinant soluble human Seprase …; experiment: direct ELISA on coated rhuSeprase, Trx fusion detected with anti-S-tag-HRP; apparent KD from one site saturation fit; Error 1,17; R2 0,9981
Protocol: as §3

Binder | Kd [1] | koff [1] | kon [1] | Kd [2] | Relative Bindung im Vergleich zu Trx-MC-FA-010 [%] [5] | other results
GACPYSNWTPGRGPDCRRDSDCPGRCICRGNGYCG (designed binder, disulfide (positions not given here), it is derived from MC-FA-010 and K2A; also called MC-FA-012 (K2A); monomeric MC-FA-012 Microbody) [MC-FA-012] | 340 nM | 0.139 s⁻¹ | 408000 M⁻¹ s⁻¹ | 246 nM |  | 
AlexaFluor680-(MC-FA-012)3 (designed binder, not shown: small tags and cut ends, each of chains 1-3: N-terminal aminooxy group oxime-ligated to the anchor; three disulfides (cystine knot) per chain; anchor carries AlexaFluor680 at its N-terminal amine, Purchased from Pepscan; also called AF680-(MC-FA-012)3) chain 1: GACPYSNWTPGRGPDCRRDSDCPGRCICRGNGYCG chain 2: GACPYSNWTPGRGPDCRRDSDCPGRCICRGNGYCG chain 3: GACPYSNWTPGRGPDCRRDSDCPGRCICRGNGYCG |  |  |  | 0.669 nM |  | times slower offrate compared to MC-FA-012 [3]: ~134 fold; Kd [4]: 0.0615 nM; kon [4]: 1.68e+07 M⁻¹ s⁻¹
GKCPYSNWTPGRGPACRRDSDCPGRCICRGNGYCG (designed binder, disulfide 16-28, 22-34, 3-26; also: N-terminal Trx-His6-S-tag fusion carrier, not in chain, the position follows from the order of the rows; also called alanine scan variant D15A of MC-FA-010, Trx fusion; not shown: Thioredoxin-A, His-tag (H6), S-tag and linker of the pET-32-LibEx fusion, N-terminal of the miniprotein) [Trx-MC-FA-0114] |  |  |  |  | 59.2% | Kd [6]: 25.6 nM
GACPYSNWTPGRGPDCRRDSDCPGRCICRGNGYCG (designed binder, disulfide 16-28, 22-34, 3-26; also: N-terminal Trx-His6-S-tag fusion carrier, not in chain, also called MC-FA-012 (K2A) alanine scan variant; not shown: N-terminal carrier of the pET-32-LibEx fusion (thioredoxin-A, His tag, S-tag, thrombin site, vector linkers)) [Trx-MC-FA-012 fusion protein] |  |  |  |  | 160% | Kd [7]: 9.49 nM
GKCPYSAWTPGRGPDCRRDSDCPGRCICRGNGYCG (designed binder, disulfide (positions not given here); also: N-terminal thioredoxin-A, His6, S-tag and linker carrier, letters not given here, the position follows from the order of the rows; also called alanine scan variant N7A of MC-FA-010, Trx fusion; not shown: thioredoxin-A, His6 tag, S-tag and linkers of the pET-32-LibEx fusion (N-terminal carrier)) [Trx-MC-FA-016] |  |  |  |  | 13.4% | Kd [8]: 113 nM
GKCPYSNWTPGRGPDCRRDSDCPGACICRGNGYCG (designed binder, disulfide 16-28, 22-34, 3-26; also: N-terminal Trx-His6-S-tag fusion carrier, not in chain, also called alanine scan variant R25A of MC-FA-010, Trx fusion; not shown: Thioredoxin-A, His-tag (H6), S-tag and linker of the pET-32-LibEx fusion, N-terminal of the miniprotein) [Trx-MC-FA-0115] |  |  |  |  | 80.7% | Kd [9]: 18.8 nM
GKCPYANWTPGRGPDCRRDSDCPGRCICRGNGYCG (designed binder, disulfide 16-28, 22-34, 3-26; also: N-terminal Trx-His6-S-tag fusion carrier, not in chain, the position follows from the order of the rows; also called alanine scan variant S6A of MC-FA-010, Trx fusion; not shown: thioredoxin-A, His6 tag, S-tag and linkers of the pET-32-LibEx fusion (N-terminal carrier)) [Trx-MC-FA-015] |  |  |  |  | 93.6% | Kd [10]: 16.2 nM
GKCAYSNWTPGRGPDCRRDSDCPGRCICRGNGYCG (designed binder, disulfide 16-28, 22-34, 3-26; also: N-terminal Trx-His6-S-tag fusion carrier, not in chain, the position follows from the order of the rows; also called alanine scan variant P4A of MC-FA-010, Trx fusion; not shown: Thioredoxin-A, His-tag (H6), S-tag and linker of the pET-32-LibEx fusion, N-terminal of the miniprotein) [Trx-MC-FA-013] |  |  |  |  | 33.7% | Kd [11]: 44.9 nM
AKCPYSNWTPGRGPDCRRDSDCPGRCICRGNGYCG (designed binder, disulfide 16-28, 22-34, 3-26; also: N-terminal Trx-His6-S-tag fusion carrier, letters not given here, the position follows from the order of the rows; also called alanine scan variant G1A of MC-FA-010, Trx fusion; not shown: Thioredoxin-A, His-tag (H6), S-tag and linker of the pET-32-LibEx fusion, N-terminal of the miniprotein) [Trx-MC-FA-011] |  |  |  |  | 74.5% | Kd [12]: 20.3 nM
GSGACPYTRWAVGRGPDCRRDSDCPGRCICRGNGYCG (designed binder) [FA8-D03] | 147 nM | 0.138 s⁻¹ | 939000 M⁻¹ s⁻¹ | 151 nM |  | 
GSGACPYSNWAVGRGPSCRRDSDCPGRCICRGNGYCG (designed binder) [FA8-F04] | 321 nM | 0.2 s⁻¹ | 624000 M⁻¹ s⁻¹ | 332 nM |  | 
GSGACPYTRWQPGRGPSCRRDSDCPGRCICRGNGYCG (designed binder) [FA8-D05] | 193 nM | 0.812 s⁻¹ | 4.21e+06 M⁻¹ s⁻¹ | 177 nM |  | 
GSGACPYTNWRPGRGPACRRDSDCPGRCICRGNGYCG (designed binder) [FA8-C09] | 296 nM | 2.94 s⁻¹ | 9.92e+06 M⁻¹ s⁻¹ | 243 nM |  | 
GSGACPYTNWHPGRGPACRRDSDCPGRCICRGNGYCG (designed binder) [FA8-G12] | 487 nM | 0.317 s⁻¹ | 651000 M⁻¹ s⁻¹ | 470 nM |  | 
GSGACPYSRWMPGRGPSCRRDSDCPGRCICRGNGYCG (designed binder) [FA7-A05] | 205 nM | 0.0503 s⁻¹ | 246000 M⁻¹ s⁻¹ | 102 nM |  | 
GSGACPYSRWAVGRGPDCRRDSDCPGRCICRGNGYCG (designed binder) [FA8-D06] | 153 nM | 0.053 s⁻¹ | 346000 M⁻¹ s⁻¹ | 113 nM |  | 
GSGACPYSNWTPGRGPDCSQDSDCLAGCVCGPNGFCG (designed binder) [ET-FA-012] | 1400 nM | 0.853 s⁻¹ | 608000 M⁻¹ s⁻¹ | 4540 nM |  | 
GSGACPYSNWTPGRGPDCSSDSDCPGACICLENGFCG (designed binder) [MO-FA-012] | 1340 nM | 0.513 s⁻¹ | 382000 M⁻¹ s⁻¹ | 1160 nM |  | 

— patent US20180037632A1 (BIONTECH, published 2018)
